Data: article PMC4422613, “The Inner Nuclear Membrane Protein Nemp1 Is a New Type of RanGTP-Binding Protein in Eukaryotes” (PLoS ONE, 2015)

Legend:
[1] = target: recombinant Myc-Mm_RanQ69L(GTP) (Mus musculus, UniProt P62827 1-216, Q69L); assay: pull-down; purified GST-Mm_Bt (2.8 μg) on glutathione-Sepharose beads incubated with purified Myc-RanQ69L (5 μg) loaded with 2 mM GTP, binding buffer, 4 °C, 2 h; conditions: both partners purified
[2] = target: GST-Mm_RanQ69L (Mus musculus, UniProt P62827 1-216, Q69L); assay: pull-down; competition: 0.1, 1, 10 μg recombinant Mm_Bt added to 10 μg GST-RanQ69L on glutathione beads in embryo lysate holding FLAG-importin β; read-out is the importin β pulled down; conditions: both partners purified

B1: GST-Mm_Bt (domain or fragment)
chain: PVPPRLLTEEEYRIQGEVETQKALQELREFCNSPECSAWKTISRIQSPKRFADFVEGSFHLTPNEVSVHEQEYGLGSIFTQDEELSSEEEGSEYPTFTQNNFLT
B1: binds [1].

B2: recombinant Mm_Bt (domain or fragment)
chain: PVPPRLLTEEEYRIQGEVETQKALQELREFCNSPECSAWKTISRIQSPKRFADFVEGSFHLTPNEVSVHEQEYGLGSIFTQDEELSSEEEGSEYPTFTQNNFLT
notes: source: recombinant
B2: binds [2].
